The test system of the data set is T1, CadR (Pseudomonas aeruginosa), ORF:ef015ded.
T1 sequence: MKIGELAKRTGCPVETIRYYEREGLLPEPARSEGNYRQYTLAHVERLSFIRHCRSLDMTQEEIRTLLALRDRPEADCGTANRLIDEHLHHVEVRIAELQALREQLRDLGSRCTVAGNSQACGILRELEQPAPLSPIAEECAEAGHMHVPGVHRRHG
Briefly: EMSA. The conditions noted are these: EMSA: 10 mM Tris pH 8.0, 40 mM KCl, 10 mM MgCl2, 1 mM DTT, 5% glycerol, 250 nM CadR, 25 ng DNA, +/- Zn or EDTA, 30 min room temperature, gel at 4 C ….

For the sequence “CCATGATCATGTCCGTGACCGTGACCGTGACAGCAAGTGTCGGCGTGTTCGTGGCTCATGGAAACAATTCCCGTTTGACGTGTTGGGTGCGATTGCACACCCTGTAGCAACTACAGAGTCAAGCGGTACTGCCAATTCGGGTAGCCGCGTCGGCGATTGGAGGAGGGTTGGCATGAAGATCGGTGAGCTGGCGAAGAGAACCGGTT (double strand) [pcadA WT promoter (EMSA)]”, the binding result is on record as “binds”.

For “GCTTCCGGTCAGCAGCAACGCCCATTTCAGGCGGGTCGAGTTGGTCTGGGCGAAGCTGTGCTCGTGTCCGGCGCTCATGGCGGCTCCTGTGGGGCGGTGGCGGCAGCACCAGCCTACAGGATAGGCAATTGCAAAACTGTCATGCGCCGGGCCGCTCTGGCGCGGCGTCCGCCGCTCCGCTAACCTGCGGCTCAGGCGCGGCCGCAGCCGCGCACGGAACGAGGGGGACGCATGACTCAACAGCACGA (double strand) [pczcD]”, the binding entry is given as “no binding”.

The record behind these values is publication PMC7242495.
